# Source: PMC5267388
# “And” between values parts separate entries of the source, which are not always exact repeats. Identical values can stand only once.
# Molecular target: PSD95, endogenous, from mouse brain lysate (mouse (endogenous in mouse brain)) (UniProt Q62108)
# Test: co-IP
# Phosphorylated Sept7 (pT426), endogenous, from mouse brain lysate, sequence (O55131 2-436): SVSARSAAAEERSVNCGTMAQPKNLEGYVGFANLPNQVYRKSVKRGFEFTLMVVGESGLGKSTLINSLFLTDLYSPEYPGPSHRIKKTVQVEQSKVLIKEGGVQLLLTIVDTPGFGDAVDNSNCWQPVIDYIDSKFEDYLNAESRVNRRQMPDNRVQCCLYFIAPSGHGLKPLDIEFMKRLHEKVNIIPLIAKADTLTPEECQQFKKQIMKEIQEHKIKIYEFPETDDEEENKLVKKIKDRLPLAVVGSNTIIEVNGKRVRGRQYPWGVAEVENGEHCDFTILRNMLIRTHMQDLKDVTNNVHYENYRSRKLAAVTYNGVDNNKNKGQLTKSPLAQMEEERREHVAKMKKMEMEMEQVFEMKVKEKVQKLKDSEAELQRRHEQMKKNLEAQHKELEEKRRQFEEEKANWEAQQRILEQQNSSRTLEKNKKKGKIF
# PSD95, endogenous, from mouse brain lysate (mouse (endogenous in mouse brain)), sequence (Q62108 whole entry): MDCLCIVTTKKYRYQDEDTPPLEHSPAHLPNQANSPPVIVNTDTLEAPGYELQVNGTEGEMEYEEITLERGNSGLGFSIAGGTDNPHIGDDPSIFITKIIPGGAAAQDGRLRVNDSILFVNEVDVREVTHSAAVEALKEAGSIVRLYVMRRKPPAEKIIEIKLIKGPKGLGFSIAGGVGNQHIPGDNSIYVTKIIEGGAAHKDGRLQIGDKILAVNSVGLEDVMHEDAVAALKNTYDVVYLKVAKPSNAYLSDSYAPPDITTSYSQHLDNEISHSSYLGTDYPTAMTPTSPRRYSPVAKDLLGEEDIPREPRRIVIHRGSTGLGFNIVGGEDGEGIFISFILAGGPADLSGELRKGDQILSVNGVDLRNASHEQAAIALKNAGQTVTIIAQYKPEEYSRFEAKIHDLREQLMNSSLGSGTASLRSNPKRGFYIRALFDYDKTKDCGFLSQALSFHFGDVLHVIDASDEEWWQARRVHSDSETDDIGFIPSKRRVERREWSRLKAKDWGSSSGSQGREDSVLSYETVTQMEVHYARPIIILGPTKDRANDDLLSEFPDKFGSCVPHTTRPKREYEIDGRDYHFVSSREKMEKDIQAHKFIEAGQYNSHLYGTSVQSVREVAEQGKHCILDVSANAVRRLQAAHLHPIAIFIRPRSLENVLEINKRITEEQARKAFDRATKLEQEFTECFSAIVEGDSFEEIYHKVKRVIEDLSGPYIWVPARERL
substance,measurement,value
"Phosphorylated Sept7 (pT426), endogenous, from mouse brain lysate (from UniProt O55131 1-436) (natural protein)",percent of endogenous Sept7 pulled down with PSD95,10% and 15%
